Data set [1] concerns the target T1, full-length GR (Homo sapiens, UniProt P04150 1-777). Put plainly: fluorescence polarization. As to conditions: triamcinolone acetonide; Fig. 2d legend gives 35 nM; FP: 10 nM 6-FAM dsDNA, 100 mM NaCl, 20 mM Tris-HCl pH 7.4, 5% glycerol, temperature not stated; NMR: 20 mM phosphate pH 6.7, 100 mM NaCl, 1 mM TCEP, 10% D2O …. Background: In fluorescence polarisation assays a small probe gives low polarisation when free and higher when bound to something large.

Data set [2] deals with T2, GR DBD (Homo sapiens, UniProt P04150 417-506). Put plainly: X-ray crystallography; 2.40 A refinement; FP: 10 nM 6-FAM dsDNA, 100 mM NaCl, 20 mM Tris-HCl pH 7.4, 5% glycerol, temperature not stated; NMR: 20 mM phosphate pH 6.7, 100 mM NaCl, 1 mM TCEP, 10% D2O, 10 and 25 C (NOESY), 25 C (HSQC). Conditions: protein: recombinant; tags: N-terminal 6xHis with TEV site.
T2 sequence (P04150 417-506): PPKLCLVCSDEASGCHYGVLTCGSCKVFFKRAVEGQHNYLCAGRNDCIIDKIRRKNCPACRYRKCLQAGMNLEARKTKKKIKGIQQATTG
Data set [3] addresses T1, full-length GR. Put plainly: fluorescence polarization; triamcinolone acetonide; FP: 10 nM 6-FAM dsDNA, 100 mM NaCl, 20 mM Tris-HCl pH 7.4, 5% glycerol, temperature not stated; NMR: 20 mM phosphate pH 6.7, 100 mM NaCl, 1 mM TCEP, 10% D2O, 10 and 25 C (NOESY), 25 C (HSQC). Conditions: protein: recombinant; tags: N-terminal 6xHis; chain copies: 2; label: 5'-FAM on strand 1; blunt.

Data set [4] deals with T2, GR DBD. Put plainly: X-ray crystallography; 1.85 A; FP: 10 nM 6-FAM dsDNA, 100 mM NaCl, 20 mM Tris-HCl pH 7.4, 5% glycerol, temperature not stated; NMR: 20 mM phosphate pH 6.7, 100 mM NaCl, 1 mM TCEP, 10% D2O, 10 and 25 C (NOESY), 25 C (HSQC). Conditions: protein: recombinant; tags: N-terminal 6xHis with TEV site.
In data set [5] the target is T2, GR DBD. Put plainly: X-ray crystallography; 2.20 A; FP: 10 nM 6-FAM dsDNA, 100 mM NaCl, 20 mM Tris-HCl pH 7.4, 5% glycerol, temperature not stated; NMR: 20 mM phosphate pH 6.7, 100 mM NaCl, 1 mM TCEP, 10% D2O, 10 and 25 C (NOESY), 25 C (HSQC). Conditions: protein: recombinant; tags: N-terminal 6xHis with TEV site.
Data set [6] has as its target T2, GR DBD. Put plainly: X-ray crystallography; 2.25 A; FP: 10 nM 6-FAM dsDNA, 100 mM NaCl, 20 mM Tris-HCl pH 7.4, 5% glycerol, temperature not stated; NMR: 20 mM phosphate pH 6.7, 100 mM NaCl, 1 mM TCEP, 10% D2O, 10 and 25 C (NOESY), 25 C (HSQC). As to conditions: protein: recombinant; tags: N-terminal 6xHis with TEV site.
The target in data set [7] is T2, GR DBD. Put plainly: fluorescence polarization; two-site binding curve; Kd in Supplementary Table 5; FP: 10 nM 6-FAM dsDNA, 100 mM NaCl, 20 mM Tris-HCl pH 7.4, 5% glycerol, temperature not stated; NMR: 20 mM phosphate pH 6.7, 100 mM NaCl, 1 mM TCEP, 10% D2O, 10 and 25 C (NOESY), 25 C (HSQC). As to conditions: protein: recombinant, tags: N-terminal 6xHis with TEV site, blunt.

T1 sequence (P04150 whole entry): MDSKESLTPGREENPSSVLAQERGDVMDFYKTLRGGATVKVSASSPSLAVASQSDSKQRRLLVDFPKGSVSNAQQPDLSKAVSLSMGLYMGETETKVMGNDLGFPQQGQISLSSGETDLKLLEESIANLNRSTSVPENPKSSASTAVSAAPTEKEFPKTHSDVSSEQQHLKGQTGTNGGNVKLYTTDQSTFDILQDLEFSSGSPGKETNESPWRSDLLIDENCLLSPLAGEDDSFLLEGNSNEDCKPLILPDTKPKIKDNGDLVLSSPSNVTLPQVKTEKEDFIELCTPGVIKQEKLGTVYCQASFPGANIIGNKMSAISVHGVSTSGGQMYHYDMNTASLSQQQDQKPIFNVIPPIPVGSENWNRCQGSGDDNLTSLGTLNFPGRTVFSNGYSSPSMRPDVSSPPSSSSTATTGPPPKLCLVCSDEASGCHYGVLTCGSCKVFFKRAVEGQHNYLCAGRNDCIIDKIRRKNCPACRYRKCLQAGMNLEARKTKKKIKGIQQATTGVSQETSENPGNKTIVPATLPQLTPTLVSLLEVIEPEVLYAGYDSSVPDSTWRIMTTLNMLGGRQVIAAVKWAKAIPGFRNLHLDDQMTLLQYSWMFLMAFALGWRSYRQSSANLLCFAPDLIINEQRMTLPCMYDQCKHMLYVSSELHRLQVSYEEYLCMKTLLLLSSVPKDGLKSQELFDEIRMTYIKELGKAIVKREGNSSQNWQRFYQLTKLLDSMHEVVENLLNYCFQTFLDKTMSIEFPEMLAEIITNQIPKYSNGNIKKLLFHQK

Turning to SGK1 (+)GRE, in the data set with full-length GR [1], the Kd was determined as 34 nM.

B1: ICAM1 kBRE 16 bp crystal DNA (dsDNA)
DNA 1: TTGGAAATTCCGGAGC
DNA 2: GCTCCGGAATTTCCAA
B1: the binding result with GR DBD [2] is “binds”.

B2: IL8 kBRE (dsDNA)
DNA 1: AATCGTGGAATTTCCTCTG
DNA 2: CAGAGGAAATTCCACGATT
Consider B2, for which, in the data set with full-length GR [3], the Kd is 51 nM.

B3: IL8 kBRE 16 bp crystal DNA (dsDNA)
DNA 1: ATCGTGGAATTTCCTC
DNA 2: GAGGAAATTCCACGAT
Take B3: the binding result with GR DBD [4] is “binds”.

B4: PLAU kBRE 16 bp crystal DNA (dsDNA)
DNA 1: ATCAGGAAATTTCCAG
DNA 2: CTGGAAATTTCCTGAT
For B4, the binding result in the data set with GR DBD [5] was “binds”.

B5: RELB kBRE 16 bp crystal DNA (dsDNA)
DNA 1: CCGGGGAATTCCGCCG
DNA 2: CGGCGGAATTCCCCGG
B5: in the data set with GR DBD [6], the binding result is recorded as “binds”.

B6: CCL2 kBRE 16 bp crystal DNA (dsDNA)
DNA 1: AGTGGGAATTTCCACT
DNA 2: AGTGGAAATTCCCACT
Consider B6, for which the binding result with GR DBD [5] is “binds”.

B7: CCL2 kBRE (dsDNA)
DNA 1: GAGTGGGAATTTCCACTCA
DNA 2: TGAGTGGAAATTCCCACTC
On to B7, for which, in the data set with GR DBD [7], the binding result is recorded as “binds”.

B8: PLAU kBRE (dsDNA)
DNA 1: CCCTGGGAATTTCCTGATA
DNA 2: TATCAGGAAATTCCCAGGG
In the case of B8, in the data set with GR DBD [7] (label: 5'-FAM on strand 1), the binding result is “binds”.

In general, Kd refers to the equilibrium constant for the complex coming apart.

The values are drawn from PMC5889392, “Cryptic glucocorticoid receptor-binding sites pervade genomic NF-κB response elements”.
